This passage reports binding result and Kd results from PMC9636964 (Proceedings of the National Academy of Sciences of the …, 2022).

The term Kd denotes the equilibrium constant for the complex coming apart. Read a high Kd as weaker binding.

Test [1] has as its target T1, G3BP1 NTF2L (nuclear transport factor 2-like domain of Ras-GTPase-activating protein binding protein (human, UniProt Q13283 1-139)). Briefly: NMR titration.
Test [2] deals with T1, G3BP1 NTF2L (nuclear transport factor …). Briefly: ITC.

T1 sequence (Q13283 1-139): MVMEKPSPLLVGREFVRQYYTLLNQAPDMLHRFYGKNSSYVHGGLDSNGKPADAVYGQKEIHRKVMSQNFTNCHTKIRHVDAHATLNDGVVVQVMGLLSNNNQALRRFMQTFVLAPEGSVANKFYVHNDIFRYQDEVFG

B1: Caprin-1(330-432) (domain or fragment)
chain: QPQAASPSVPEPHSLTPVAQADPLVRRQRVQDLMAQMQGPYNFIQDSMLDFENQTLDPAIVSAQPMNPTQNMDMPQLVCPPVHSESRLAQPNQVPVQPEATQV
modifications: 15N-labeled
As for B1, the binding result in test [1] is listed as “binds”.

Take VAQADPLVRRQRVQDLMAQMQGPYNFIQDSMLDFENQTLD [Caprin-1(347-386) peptide]: in test [2], the Kd stood at 1300 nM.
